In the nanobody polyreactivity screen of Harvey et al. (2022):

Assay: yeast display, Sf9 membrane polyspecificity reagent, FACS + sequencing; frameworks hold sequencing errors
In short: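 After 36–48 hours of galactose induction, yeast (Saccharomyces cerevisiae BJ5465) displaying a synthetic nanobody library were stained at 4 °C for 1 hour with 10% biotinylated, detergent-solubilized Sf9 membrane reagent. Streptavidin microbeads enriched the stained cells before FACS sorting into low and high (top ~1%) gates on anti-HA and streptavidin fluorescence. Each clone's polyreactivity label reflects its gate of origin.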

Sequence	polyreactivity (PSR sort gate)
QVQLVESGGGLVQAGGSLRISCAASGSTFFYYSMGWYRQAPGKEWEFVAHITSSDASTHYADSVKGRFTISRDNAKNTVNLQMNSQQPEDTAVYYCAADRYCGQANYYWGQGTQVTVSS	low polyreactivity
QVQLVESGGGLVQAGGSLRISCAASGSTFGWYTMGWYRQAPGKERELVAAISQGGGRTRYADSVKGRFTISRDNAKNTVYLQMNSLKPEDTAVYYCAATYYHRPYISNYGYWGQGTQVTVSS	high polyreactivity
QVQLVESGGGLVQAGGSLRISCAASGSTFRLYAMGWYRQAPGKERELVAAISSNGVRTYYADSVKGRFTISRDNAKNTVYLQMNSLKPEDTAVYYCAARVYPAYPRGYDYWGQGTQVTVSS	high polyreactivity
QVQLVESGGGLVQAGGSLRISCAASGSTFSGNSMGRYRPAPGKERELFAAINSVRTYYADSVKGRFTISRDNAKNTVYLQMNSLIPEDTAVFSCAARQGYSSRFPAKGYYWGQGTQVTVSS	high polyreactivity
QVQLVESGGGLVQAGGSLRISCAASGSTFSQYTMGWYRQAPGKERELVAAITWSGGRTYYADSVKGRFTISRDNAKNTVYLQMNSLKPEDTAVYYCNRDISGSSGGELDYWGQGTQVTVSS	low polyreactivity
QVQLVESGGGLVQAGGSLRISCAASGSTFSYYAMGWYRQAPGKERELVADISWSGGSTYYADSVKGRFTISRDNAKNTVYLQMNSQKPEDTAVFYCAARGYVRWYNRYDYWGQGTQVTVSS	low polyreactivity
QVQLVESGGGLVQAGGSLRISCAASGSTFTTYAMGWYRQAPGKERELVARIRSSGGITYYADSVKGRFTISRDNAKNTVYLQMNSLKPEDTAVYYCAARGQFYNTRVGYWGQGTQVTVSS	high polyreactivity
QVQLVESGGGLVQAGGSLRISCAASGSTFWYHAKGWSRQAPGKERELVATITNSGGSTYYADSVKGRFTISRDNAKNTVYLQKNSLKPEDTAVYYGATDVYSGALLKYDFWGQGTQVTVSS	low polyreactivity
QVQLVESGGGLVQAGGSLRISCAASGSTLGYYAMGWYRPAPAKESELVAAISRGGGSTYYADSVKGRFTISRDNAKNTVYLQMNSLKPEVTAVYYCNKYFAYGDFDYWGQGTQVTVSS	high polyreactivity
QVQLVESGGGLVQAGGSLRISCAASGSTLQYYAMGWYRQAPGKERELVAAISWRGARTYYADSVKGRFTISRDNAKNTVYLQMNSLKPQDTAVYYCAAVYGSRGYAGNYYWGHGTQVTVSS	high polyreactivity
QVQLVESGGGLVQAGGSLRISCAASGSTSSRNAMGWYRQAPGKERELVAAITSGTRTYYADSVKGRFTISRDNAKNSVYLQRNSLKPEDTAVYYCARGRVSRYTKTDYDYWGQGSQVTVSS	high polyreactivity
QVQLVESGGGLVQAGGSLRISCAASGYIYGYNAMGWYRQAPGIAREFVAAIRFSGGSTYYADSVKGRFTISRDNAKNTVYLQMNSLKPEDTAVYYCAKRCYAHLIPIAYEYWGQGTQVTVSS	low polyreactivity
QVQLVESGGGLVQAGGSLRISCAASGYTFASYTMGWYRQAPGKERELVATISRGGGRTYYADSVKGRFTISRDNAKNTVYLQLNSLKPEDTAVYYCARPSTFFTGYRQAHFDYWGQGTQVTVSS	high polyreactivity
QVQLVESGGGLVQAGGSLRISCAASGYTFFNYAMGWSRQAPGKERELVAAITWSGGSRYYADSVKGRFTISRVNAKNTVYLQMNSLKPEDTAVYYCAADAITPRDPYVTEKLDYWGQGTQVTVSS	low polyreactivity
QVQLVESGGGLVQAGGSLRISCAASVSTFGRYAMGWYRQAPGKERELVAAISRGTTTNYADSVKGRFTISRDNAKNTVYLQMNSLKPEDTAVYYCAADQPSKRYYYWGQGTQVTVSS	low polyreactivity
QVQLVESGGGLVQAGGSLRISCAAYGRIFWWYAMGWYRQAPGKERELVASIRYGGGSTYYADSVKGRFTISRDNAKNTVYLQMNSLKPEDTAVYYCAARFKRHGRSDYWGQGTQVTVSS	high polyreactivity
QVQLVESGGGLVQAGGSLRISCADCGSIFEVNAMGWYRPAPGTERELVAAISSGDRTNYADSVKGRFTISRDNAKNTVYLQMNSLKPEDTAVYYCNKGAAWRPFFGPYYNYEYWGQGTQVTVSS	high polyreactivity
QVQLVESGGGLVQAGGSLRISCDASGRTFYYYAMGWYRQAPGKERELVASITITDSTNYADSVKGRFTISRDNAKNTVYLQMNSLKPEDTAVYYCAKRGWGTSFYLSDYWGQGTEVTVSS	low polyreactivity
QVQLVESGGGLVQAGGSLRISCDASGSTFYPYAMGWYRQAPGKERELVAAISSGGSTSYADSVKGRFTISRDNAKNTVYLQMNSLKPEDTAVYYCNASSPGAVPVYDYDYWGQGTQVTVSS	low polyreactivity
QVQLVESGGGLVQAGGSLRISCGASGSTFAQNVMGWDRQAPGKERELVAAITSSGSTNYADSVKGRFTISRDNAKNTVYLQMNSLKPEDSAVYYCAKDVLAPYSRHDYWGQGTQVTVSS	low polyreactivity
QVQLVESGGGLVQAGGSLRISSAASGFNSPSYAMGWYRQAPGKERELVAAISSGDSTNYADSVKGRFTISRDNAKNTVYLLMNSLKPEDTAVYYCAARYREQYDYWGQGTQVTVSS	low polyreactivity
